Assay [1] deals with T1, CD3 expressed on cell-surface of primary human T cells (human, UniProt P07766 23-207; P04234 22-171).
T1 construct: also called cell-surface CD3; human CD3
In words: flow cytometry competition vs murine SP34-AF488 on human T cells, n = 1.
Procedure: (§1) Binding of humanized SP34 Fab variants to CD3 expressed on cell-surface of primary human T cells was evaluated in a flow cytometry-based competition assay.

Assay [2] addresses T2, biotinylated CD3 epsilon: delta heterodimer protein (Amsbio AMS.CDD-H52WO) (Homo sapiens (Human), UniProt P07766 23-126; P04234 22-105). In words: BLI (Octet), huSP34 variant in Fab format. A general note: BLI is a label-free optical method that tracks binding on a fibre tip over time.
Procedure: (§2) The CD3 binding kinetics of the purified huSP34 Fabs were determined using OctetRed384 (Pall ForteBio, CA) biolayer interferometry (BLI). […] Streptavidin (SA) coated biosensors tips (Pall ForteBio, CA) were used to capture biotinylated CD3 epsilon: delta heterodimer and typical immobilization levels captured on the SA sensors were 1 nm which approximately translates to 300 ng/ml of captured protein. For kinetic measurements biosensors were first pre-wetted with assay buffer for 10 minutes to remove protective sucrose coating followed by the recommended regeneration conditions for standardization of the biosensor surface for the experiment. In order to load the biosensors with antigen, 300 ng/ml of biotinylated CD3 epsilon: delta heterodimer protein (Amsbio AMS.CDD-H52WO) was immobilized on the SA sensor for 900 seconds. The CD3 loaded biosensors were then blocked with 20 ug/ml biocytin (sigma) for 200 seconds and then dipped into assay buffer containing wells for 200 seconds to remove any non-specific protein or unbound CD3 heterodimer.
(§3) CD3 loaded and biocytin blocked biosensors were then transferred into fresh assay buffer for 200 seconds to collect a baseline read. Kinetic measurements for anti-CD3 Fab and bispecific antibody binding were performed by dipping the CD3-coated biosensors into wells containing multiple concentrations of Fab or Ab (0-300 nM) for 100 seconds followed by a 300 second dissociation time by transferring the biosensors into assay buffer containing wells. The CD3 loaded sensors were then regenerated for the next kinetic measurement. Biosensors were generated by removing bound Fabs or Ab from immobilized CD3 on SA biosensors. Regeneration conditions used consisted of 3 cycles of 5 seconds of dipping the biosensors in Regeneration Buffer (10 mM Glycine HCl pH 1.5) followed by Assay Buffer (10 mM sodium phosphate pH 7.4, 140 mM Sodium Chloride, 0.005% Tween20 with 0.2% BSA).
In assay [3] the target is T1, CD3 expressed on cell-surface of …. The assay is described as follows: flow cytometry competition vs murine SP34-AF488 on human T cells, n = 2. Background: Flow cytometry measures light scatter and fluorescence of single cells or particles in a stream.
Procedure: as §1
Assay [4] shares this target. The assay is described as follows: flow cytometry competition vs murine SP34-AF488 on human T cells, average.
Procedure: as §1
In assay [5] the target is T2, biotinylated CD3 epsilon: delta …. In words: BLI (Octet), corresponding huSP34 Fab variant.
Procedure: as §2, §3
Assay [6] has the same target. The assay is described as follows: BLI (Octet), corresponding huSP34 Fab variant. This is another data set of the same source.
Procedure: as §2
CD3 loaded and biocytin blocked biosensors were then transferred into fresh assay buffer for 200 seconds to collect a baseline read. […]
The target in assay [7] is T1, CD3 expressed on cell-surface of …. In words: flow cytometry competition vs murine SP34-AF488 on human T cells, average. This is another data set of the same source.
Procedure: as §1
(§4) A second round of huSP34 Fab variants were characterized using the same flow cytometry-based competition assay as described above.
Assay [8] has the same target. In words: flow cytometry competition vs murine SP34-AF488 on human T cells, n = 1. This is another data set of the same source.
Procedure: as §1, §4
The target is the same in assay [9]. In words: flow cytometry competition vs murine SP34-AF488 on human T cells, n = 2. The source holds these as a separate data set.
Procedure: as §1, §4
For assay [10] the target is unchanged. The assay is described as follows: flow cytometry on PBMCs, % anti-huIgG+ CD8+ cells, donor hu 711.
Procedure: (§5) Briefly, PBMCs from healthy human donors and healthy rhesus or cynomolgus monkey donors were incubated with different concentrations of HIV×CD3 bispecific molecules for 1 hour at RT. […] Cells were then washed, fixed/permeabilized, and analyzed on BD LSRFortessa. The percentage of α-huIgG-APC-positive CD4+ and CD8+ T cells and the mFI of the α-huIgG-APC of CD4+ and CD8+ cells were collected, and data analyzed using GraphPad Prism.
Assay [11] shares this target. In words: flow cytometry on PBMCs, % anti-huIgG+ CD8+ cells, donor hu 921.
Procedure: as §5
For assay [12] the target is unchanged. The assay is described as follows: flow cytometry on PBMCs, % anti-huIgG+ CD4+ cells, donor hu 711.
Procedure: as §5
Assay [13] has the same target. The assay is described as follows: flow cytometry on PBMCs, % anti-huIgG+ CD4+ cells, donor hu 921.
Procedure: as §5
Assay [14] concerns the target T3, CD3 on cynomolgus monkey T cells in PBMCs (cynomolgus monkey, UniProt Q95LI5 22-198).
T3 construct: whole, on cells; also called cynomolgus CD4+ and CD8+ T cells
The assay is described as follows: flow cytometry on PBMCs, % anti-huIgG+ CD4+ cells, donor cy 2177.
Procedure: as §5

Assay [15] concerns the target T3, CD3 on cynomolgus monkey T cells in …. In words: flow cytometry on PBMCs, % anti-huIgG+ CD8+ cells, donor cy 2177.
Procedure: as §5
For assay [16], the target named is T4, MabSelect SuRe (engineered Protein A).
T4 construct: also called MabSelect SuRe column
The assay is described as follows: 500 ml Expi293 expression, MabSelect SuRe capture and cation exchange; purified homodimer yield; parental reference.
Procedure: 500 ml of Expi293 cells were transfected with 0.5 mg DNA encoding selected huSP34 scFv-Fc Protein A knockout variants according to manufacturer's protocol. Four days post transfection, the cell-free clarified supernatant was collected and loaded to a MabSelect™ SuRe™ (Cytiva Life Sciences) column. Afterwards the column was washed with a low salt buffer of 25 mM Tris HCl pH 7.5, 25 mM NaCl for 10 column volumes (CV), then high salt wash of 25 mM Tris HCl pH 7.5, 500 mM NaCl for 5CV to remove non-specific binding, and finally washed with a low salt wash of 25 mM Tris HCl pH 7.5, 25 mM NaCl for 10CV. To elute the antibody, an isocratic elution step of 100 mM sodium acetate pH 3.7 was performed. The eluted pool was neutralized to pH 6.0 with 1 M Tris HCl pH 9.0, and subjected to a cation ion purification, HiTrap SP HP (Cytiva Life Sciences) to further remove impurities. The cation captured protein was washed with 10 mM sodium phosphate pH 7.0 for 10CV, then eluted in 0-30% gradient of 10 mM sodium phosphate pH 7.0, 1M NaCl for 50CV to separate the desired two targeting arm antibody (heterodimer) from the one targeted arm antibody (homodimer). […] Concentration of the formulated protein was measured by A280. Purity was assessed as percent monodispersed by analytical size-exclusion chromatography. Identity of the bispecific antibody was determined by Mass Spec (MS).

Some results are limits rather than exact numbers.

T3 sequence (Q95LI5 22-198): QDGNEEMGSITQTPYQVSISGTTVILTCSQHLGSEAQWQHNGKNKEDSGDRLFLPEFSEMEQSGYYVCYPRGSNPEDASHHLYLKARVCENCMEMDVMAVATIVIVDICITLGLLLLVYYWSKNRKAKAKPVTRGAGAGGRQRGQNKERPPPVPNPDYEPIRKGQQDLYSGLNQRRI

B1: huSP34.3.6 Fab-HF (Fab, V domains shown)
VH: EVQLVESGGGLVQPGGSLRLSCAASGFTFNTYAMNWVRQAPGKGLEWVGRIRSKYNNYATYYADSVKGRFTISRDDSKNSLYLQMNSLRTEDTAVYYCVRHGNFGHSYVSWFAYWGQGTLVTVSS
VL: QAVVTQPPSLTVSPGGTVTLTCGSSTGAVTTGHYANWVQQKPGQAPRGLIGGTSNRAPGVPARFSGSLSGGKAALTISGAQPEDEAEYYCALWYSARWVFGGGTKLTVL
As usually defined, the IC50 is the concentration needed to halve the response being measured. For orientation: Kd means the equilibrium constant for the complex coming apart. For B1, the IC50 in assay [1] was 8.48 µg/mL; in assay [3] it was 1.03 µg/mL; in assay [4] it was 4.75 µg/mL. Besides, the Kd in [2] and in assay [5] was 19 nM each time.

B2: huSP34.13.8 Fab-HF (Fab, V domains shown)
VH: EVQLVESGGGLVQPGGSLRLSCAASGFTFSTYAMNWVRQAPGKGLEWVGRIRSKYNNYATYYAASVKGRFTISRDDSKNTLYLQMNSLRTEDTAVYYCVRHGNFGHSYVSWFAYWGQGTLVTVSS
VL: QAVVTQEPSLTVSPGGTVTLTCGSSTGAVTTGHYANWVQQKPGQAPRGLIGGTNKRAPGVPARFSGSLLGGKAALTISGAQPEDEAEYYCALWYSNRWVFGGGTKLTVL
As to B2, binding in [6] was put at a Kd of 2.49 nM. Besides, the concentration for half-maximal inhibition (IC50) in assay [7] came to 0.25 µg/mL; in assay [8], 0.36 µg/mL; in assay [9], 0.14 µg/mL.

B3: huSP34.4.2 Fab-HF (Fab, V domains shown)
VH: EVQLVESGGGLVQPGGSLRLSCAASGFTFSTYAMNWVRQAPGKGLEWVGRIRSKYNNYATYYAASVKGRFTISRDDSKNSLYLQMNSLRTEDTAVYYCVRHGNFGHSYVSWFAVWGQGTLVTVSS
VL: QAVVTQEPSLTVSPGGTVTLTCGSSTGAVTTSNYANWVQQKPGQAPRGLIGGTSNRAPWTPARFSGSLLGGKAALTLSGAQPEDEAEYYCALWYSNLWVFGGGTKLTVL
Molecule B3 came in with a Kd in [6] of 45.3 nM. Moreover, the IC50 in assay [1] and in assay [3] was over 20 µg/mL in each case.

B4: hCD4 D1.22 Fc AAS + W + YTE/huSP34.39.13 AAS + SAV + R (bispecific antibody, human IgG1, lambda, L234A L235A)
chain: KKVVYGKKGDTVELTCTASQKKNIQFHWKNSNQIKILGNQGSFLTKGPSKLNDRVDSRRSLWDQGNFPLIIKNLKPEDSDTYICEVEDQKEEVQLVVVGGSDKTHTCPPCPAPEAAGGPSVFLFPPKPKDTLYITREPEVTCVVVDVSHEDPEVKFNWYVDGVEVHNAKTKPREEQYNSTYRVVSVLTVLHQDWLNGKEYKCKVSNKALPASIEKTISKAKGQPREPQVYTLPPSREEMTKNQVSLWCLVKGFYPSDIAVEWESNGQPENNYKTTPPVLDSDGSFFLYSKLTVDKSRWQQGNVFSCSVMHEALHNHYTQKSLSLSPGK
heavy: EVQLVESGGGLVQPGGSLRLSCAASGFTFNTYAMNWVRQAPGKGLEWVGRIRSKYNNYATYYADSVKSRFTISRDDSKNSLYLEMNSLRTEDTAVYYCVRHGNFGHSYVSWFAYWGQGTLVTVSSASTKGPSVFPLAPSSKSTSGGTAALGCLVKDYFPEPVTVSWNSGALTSGVHTFPAVLQSSGLYSLSSVVTVPSSSLGTQTYICNVNHKPSNTKVDKKVEPKSCDKTHTCPPCPAPEAAGGPSVFLFPPKPKDTLMISRTPEVTCVVVDVSHEDPEVKFNWYVDGVEVHNAKTKPREEQYNSTYRVVSVLTVLHQDWLNGKEYKCKVSNKALPASIEKTISKAKGQPREPQVYTLPPSREEMTKNQVSLSCAVKGFYPSDIAVEWESNGQPENNYKTTPPVLDSDGSFFLVSKLTVDKSRWQQGNVFSCSVMHEALHNRYTQKSLSLSPGK
light: QAVVTQEPSLTVSPGGTVTLTCGSSTGAVTTGHYANWVQQKPGQAPRGLIGGTSNRAPGVPARFSGSLLGGKAALTISGAQPEDEAEYYCALWYSNRWVFGGGTKLTVLGQPKAAPSVTLFPPSSEELQANKATLVCLISDFYPGAVTVAWKADSSPVKAGVETTTPSKQSNNKYAASSYLSLTPEQWKSHRSYSCQVTHEGSTVEKTVAPTECS
notes: also called 180; CD4 x huSP34 bispecific 180
A word on the EC50: it is the concentration giving half of the maximal effect. Take B4: the EC50 worked out at 1.1 µg/mL in assay [10]; 0.08 µg/mL in assay [11]; 0.54 µg/mL in assay [12]; 0.09 µg/mL in assay [13]; 0.5 µg/mL in [14]; 1.09 µg/mL in assay [15].

B5: huSP34.13.8 scFv AAS + SAV + R (Fc fusion)
chain: EVQLVESGGGLVQPGGSLRLSCAASGFTFSTYAMNWVRQAPGKGLEWVGRIRSKYNNYATYYAASVKGRFTISRDDSKNTLYLQMNSLRTEDTAVYYCVRHGNFGHSYVSWFAYWGQGTLVTVSSGGGGSGGGGSGGGGSGGGGSQAVVTQEPSLTVSPGGTVTLTCGSSTGAVTTGHYANWVQQKPGQAPRGLIGGTNKRAPGVPARFSGSLLGGKAALTISGAQPEDEAEYYCALWYSNRWVFGGGTKLTVLEPKSSDKTHTCPPCPAPEAAGGPSVFLFPPKPKDTLMISRTPEVTCVVVDVSHEDPEVKFNWYVDGVEVHNAKTKPREEQYNSTYRVVSVLTVLHQDWLNGKEYKCKVSNKALPASIEKTISKAKGQPREPQVYTLPPSREEMTKNQVSLSCAVKGFYPSDIAVEWESNGQPENNYKTTPPVLDSDGSFFLVSKLTVDKSRWQQGNVFSCSVMHEALHNRYTQKSLSLSPGK
notes: also called huSP34.13.8scFv-Fc; parent
As to B5, the “scFv-Fc Homodimer Yield Relative to WT (e.g. Protein A binding)” value in assay [16] came to 100%.

The record behind these values is patent US20230056252A1 (Gilead, published 2023).
